For one substance, Kd results are on record in publication PMC10911789.

This assay deals with recombinant spike glycoprotein RBD from SARS-CoV-2 (BEI Resources NR-52366) (SARS-CoV-2) (UniProt P0DTC2). The assay is described as follows: BLI. Background: BLI is a label-free optical method that tracks binding on a fibre tip over time.

Sequence of recombinant human GAPDH (glyceraldehyde-3-phosphate dehydrogenase), P04406 1-335 (enzyme; other documents disagree on this pair) (P04406 whole entry): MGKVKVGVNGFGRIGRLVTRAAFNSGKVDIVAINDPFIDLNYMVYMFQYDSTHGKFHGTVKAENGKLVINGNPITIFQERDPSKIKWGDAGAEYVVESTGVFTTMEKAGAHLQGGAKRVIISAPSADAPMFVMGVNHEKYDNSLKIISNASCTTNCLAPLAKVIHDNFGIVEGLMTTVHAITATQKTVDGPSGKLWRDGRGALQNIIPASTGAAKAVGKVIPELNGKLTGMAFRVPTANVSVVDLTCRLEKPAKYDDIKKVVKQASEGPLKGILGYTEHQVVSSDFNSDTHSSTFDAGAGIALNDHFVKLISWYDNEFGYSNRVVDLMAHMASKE

Consider “recombinant human GAPDH (glyceraldehyde-3-phosphate dehydrogenase), P04406 1-335 (enzyme; other documents disagree on this pair)”, for which the Kd (commonly a measure of binding affinity in units of concentration) turned out to be 11.8 nM.
